Test results: US11466255B2, “Methods and compositions for converting non-endocrine pancreatic tissue into insulin-producing cells” (UNIVERSITY OF MIAMI, priority 2015, dated 2022)

How the values were obtained:
hNEPT [1] = experiment: Glucose-stimulated insulin secretion (GSIS) and perifusion; assay type: cell-based, human; settings: day 12; 2.5 mM vs 20 mM glucose
Method: Glucose-stimulated insulin release (GSIR) and total insulin determination: GSIR was performed in six-well plate cultures. BMP-7-treated samples and untreated controls were washed twice with DMEM medium containing 2.5 mM glucose (Low glucose medium or L-medium). Upon addition of 2 ml of the same medium, the cells were cultured for 1 h at 37° C. to bring their insulin secretion to baseline. After 2 more washes, 1 ml of L-medium was added and the cells were returned to the incubator for 1 h. At the end of incubation period, the medium was collected and the cells exposed for 1 h to 1 ml of 20 mM glucose DMEM medium (high glucose medium or H-medium). After the collection of the H-medium supernatant, the cells were washed three times with L-medium and cultured again in low glucose conditions for 1 h. As before, supernatant was collected at the end of the incubation period. The second low glucose incubation is necessary to confirm that the cells are responding to glucose concentration changes in a physiological manner and not dumping insulin. […] The lysates and the supernatants from GSIR test were evaluated with ELISA for C-peptide content (Mercodia, Uppsala, Sweden) following manufacturer's instructions. […]
Perifusion studies: Perifusion was performed as described58. […] Insulin release was determined with the Human Insulin ELISA Mercodia Kit (Uppsala, Sweden) following the manufacturer's instructions.

[2] = test system: P2RY1+/ALK3+ sorted cells; experiment: Sorted P2RY1+/ALK3+ cells treated with BMP-7 with or without dorsomorphin; assay type: cell-based, human; settings: 100 ng/μl BMP-7, qRT-PCR and IF
Method: A 2-color FACS selection for dissociated hNEPT (as well as collagenase-digested MPDs) that are positive for the surface markers P2RY1 and ALK3 (Life Span Biosciences) is conducted. This approach has already been successfully tested, as is shown herein. Sorted cells are treated with 100 ng/μl of BMP-7 with or without dorsomorphin, which inhibits BMP signaling. Additional aliquots receive no treatment. […] This is determined by qRT-PCR and IF as above, as well as ultrastructural analyses by TEM.

stz-treated mice = settings: systemic BMP-7; cited from earlier work
hNEPT [3] = experiment: C-peptide content (ELISA, normalised to DNA) of hNEPT; assay type: cell-based, human; settings: for induction of C-peptide compared to t=0: n=4, P=0.06
Method: hNEPT culture: Human islets were isolated at the DRI's cGMP facility following methods already described54, and hNEPT samples (2-4 ml) were obtained as an isolation byproduct. The cells were washed and seeded on tissue culture-treated plates in FBS- and trypsin inhibitor-supplemented RPMI 1640 medium (Gibco-Life Technologies, Grand Island, N.Y.). After 48 h, floating cells were removed with fresh medium replacement. The following day, cultures were either treated with 100 ng/ml BMP-7 (ProSpec-Tany TechnoGene; Ness Ziona, Israel) or remained in the starting medium as controls. Cells were allowed to grow 4-5 days and then the serum-containing medium was replaced by serum-free Advanced RPMI 1640 (Gibco-Life Technologies, Grand Island, N.Y.). Four to five days later the cells were either subjected to static incubation to evaluate their ability to respond to changing glucose concentration or collected for further assessments (such as C-peptide content, immunohistochemistry or cellular composition) or transplantation.
Glucose-stimulated insulin release (GSIR) and total insulin determination: GSIR was performed in six-well plate cultures. BMP-7-treated samples and untreated controls were washed twice with DMEM medium containing 2.5 mM glucose (Low glucose medium or L-medium). Upon addition of 2 ml of the same medium, the cells were cultured for 1 h at 37° C. to bring their insulin secretion to baseline. After 2 more washes, 1 ml of L-medium was added and the cells were returned to the incubator for 1 h. At the end of incubation period, the medium was collected and the cells exposed for 1 h to 1 ml of 20 mM glucose DMEM medium (high glucose medium or H-medium). After the collection of the H-medium supernatant, the cells were washed three times with L-medium and cultured again in low glucose conditions for 1 h. As before, supernatant was collected at the end of the incubation period. The second low glucose incubation is necessary to confirm that the cells are responding to glucose concentration changes in a physiological manner and not dumping insulin. After the last incubation, the cells were collected, washed in PBS and lysed with 1 ml of T-Per (Thermo Scientific, Rockford, Ill.). The lysates and the supernatants from GSIR test were evaluated with ELISA for C-peptide content (Mercodia, Uppsala, Sweden) following manufacturer's instructions. DNA content of the lysates was used to normalize the results (Pico-Green dsDNA Assay Kit, Life Technologies-Molecular Probes, Grand Island, N.Y.).

hNEPT [4] = experiment: hNEPT culture exposed to BMP-7: cluster/colony formation and DNA content; assay type: cell-based, human
Method: Fresh hNEPT preparations were allowed to attach to tissue culture-treated plates for 48 h and subsequently exposed to BMP-7. The rationale behind the use of BMP-7 was that it may help reduce the incidence of EMT in cultured pancreatic exocrine tissue, as EMT has proven an obstacle for the formation of endocrine cells from exocrine cells in a similar setting^7. Control aliquots were cultured in the same conditions but without BMP-7. […] The growth of the colonies in the BMP-7 group was followed by in situ live cell imaging (Incucyte Zoom) (FIG. 1b and FIG. 8). This increase in size was paralleled by an average increase of 4.8-fold in DNA content from the time of attachment to day 12 (n=2), which further evidenced active cell proliferation.
hNEPT culture: Human islets were isolated at the DRI's cGMP facility following methods already described54, and hNEPT samples (2-4 ml) were obtained as an isolation byproduct. […]
Real-time colony growth assessment: In order to observe the formation and growth of the colonies we used an IncuCyteZOOM EssenBiosciences instrument (Ann Arbor, Michigan) within a Symphony Incubator purchased from VWR (Atlanta Ga.). The cells remain in their own culturing flask or plate, where growth can be observed and quantified over time. […]

B1: BMP-7: 35 kDa homodimeric protein of the TGF-β superfamily; FDA-approved agent; human mature chain SEQ ID NO:1/2 (protein, listed as Homo sapiens)
chain: IRSTGSKQRSQNRSKTPKNQEALRMANVAENSSSDQRQACKKHELYVSFRDLGWQDWIIAPEGYAAYYCEGECAFPLNSYMNATNHAIVQTLVHFINPETVPKPCCAPTQLNAISVLYFDDSSNVILKKYRNMVVRACGCH
modifications: homodimer; human mature chain of BMP-7 (NCBI Reference Sequence NM_001719.2) comprising peptide from 293-431
- glucose responsiveness of induced clusters (hNEPT [1]): glucose responsive
- expression of endocrine differentiation genes vs. control or BMP-7+dorsomorphin [2]: induces the expression of endocrine differentiation genes
- effect on hyperglycemia of stz-treated mice (stz-treated mice): corrected the hyperglycemia
- C-peptide production induction vs. t=0 (hNEPT [3]; BMP-4 vs BMP-7 comparison, n=6, P=0.43): 156±32 fold
- induction of C-peptide compared to t=0 (hNEPT [3]; BMP-7 alone, dorsomorphin experiment): 314.1±152 fold
- induction of C-peptide compared to t=0 (hNEPT [3]; BMP-7 in the presence of dorsomorphin (DM)): 107.8±34.3 fold
- C-peptide induction vs. t=0 (hNEPT [3]; THR-123 vs BMP-7 comparison, n=4, P=0.25): 261±102 fold
- average increase in total C-peptide vs. the initial material (hNEPT [3]; day 12 vs day 0, 8 independent hNEPT preparations): two orders of magnitude
- formation of cellular clusters (hNEPT [4]; 100 ng/ml BMP-7, course of 12 days, controls became mesenchymal-like monolayers): induced the formation of abundant cellular clusters
- average increase in DNA content from the time of attachment to day 12 (hNEPT [4]; BMP-7 group, n=2): 4.8 fold
